Measurements as given in the supplement of paper PMC11780869.

The sequences below were run on Bacillus subtilis (assay: cleaved RNA product abundance (RNA/gDNA barcode ratio) relative to median wild-type variant (ratio to wild type); higher = more accumulation of the downstream cleavage product). Conditions: experiment (reporter, strain, medium): exp 8a: truncated aprE reporter, strain BJT201 with 2% xylose (RNase J1 expressed); cleavage site: glnRA (positions -5 to +31 mutated).
Method in brief: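 B. subtilis strains with chromosomally integrated reporter mRNAs (truncated aprE or tetM) holding barcoded, mutagenized RNase Y cleavage-site windows grew in LB at 37°C from OD600 0.0003 to 0.3. Cleaved product abundance is each construct's RNA:gDNA barcode ratio, scaled to the median construct with the unmutated site. It came from sequencing barcodes of gel-selected, reverse-transcribed cleaved RNA and of genomic DNA.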

Sequence | cleaved RNA product abundance
CGACATGTCCCGCTTCTTTCATTAATCCGTTAGCAACTGTTTTGCTATATACAATTGCCTTTTAAGAGGAGGAAT | 0.532
CGACATGTCCCGCTTCTTTCATTAATCCGTTAGCAACTGTTTTGCTATATACAATTTACCTTTTAAGAGGAGGAA | 1.39
CGACATGTCCCGCTTCTTTCATTAATCCGTTAGCAACTGTTTTGCTATATACACGTACCTTTTAAGAGGAGGAAT | 0.835
CGACATGTCCCGCTTCTTTCATTAATCCGTTAGCAACTGTTTTGCTATATACACTTAACTTTTAAGAGGAGGAAT | 0.785
CGACATGTCCCGCTTCTTTCATTAATCCGTTAGCAACTGTTTTGCTATATACACTTACCTTTTAAGAGGAGGAAT | 0.964
CGACATGTCCCGCTTCTTTCATTAATCCGTTAGCAACTGTTTTGCTATATACACTTATCTTTTAAGAGGAGGAAT | 0.672
CGACATGTCCCGCTTCTTTCATTAATCCGTTAGCAACTGTTTTGCTATATACAGTTACCTTTTAAGAGGAGGAAT | 0.464
CGACATGTCCCGCTTCTTTCATTAATCCGTTAGCAACTGTTTTGCTATATACAGTTACGTTTTAAGAGGAGGAAT | 0.192
CGACATGTCCCGCTTCTTTCATTAATCCGTTAGCAACTGTTTTGCTATATACATATAACTTTTAAGAGGAGGAAT | 1.73
CGACATGTCCCGCTTCTTTCATTAATCCGTTAGCAACTGTTTTGCTATATACATATACATTTTAAGAGGAGGAAT | 0.68
CGACATGTCCCGCTTCTTTCATTAATCCGTTAGCAACTGTTTTGCTATATACATATACCATTTAAGAGGAGGAAT | 0.971
CGACATGTCCCGCTTCTTTCATTAATCCGTTAGCAACTGTTTTGCTATATACATATACCTTTTAAGAGGAGGAAT | 1.04
CGACATGTCCCGCTTCTTTCATTAATCCGTTAGCAACTGTTTTGCTATATACATATACGTTTTAAGAGGAGGAAT | 1.29
CGACATGTCCCGCTTCTTTCATTAATCCGTTAGCAACTGTTTTGCTATATACATATACTTTTTAAGAGGAGGAAT | 0.975
CGACATGTCCCGCTTCTTTCATTAATCCGTTAGCAACTGTTTTGCTATATACATATATCTTTTAAGAGGAGGAAT | 1.06
CGACATGTCCCGCTTCTTTCATTAATCCGTTAGCAACTGTTTTGCTATATACATATTCCTTTTAAGAGGAGGAAT | 0.511
CGACATGTCCCGCTTCTTTCATTAATCCGTTAGCAACTGTTTTGCTATATACATCTACATTTTAAGAGGAGGAAT | 1.27
CGACATGTCCCGCTTCTTTCATTAATCCGTTAGCAACTGTTTTGCTATATACATCTACCTTTTAAGAGGAGGAAT | 0.867
CGACATGTCCCGCTTCTTTCATTAATCCGTTAGCAACTGTTTTGCTATATACATGTACCTTTTAAGAGGAGGAAT | 0.738
CGACATGTCCCGCTTCTTTCATTAATCCGTTAGCAACTGTTTTGCTATATACATTAACCGTTTAAGAGGAGGAAT | 0.934
CGACATGTCCCGCTTCTTTCATTAATCCGTTAGCAACTGTTTTGCTATATACATTAACCTTTTAAGAGGAGGAAT | 1.37
CGACATGTCCCGCTTCTTTCATTAATCCGTTAGCAACTGTTTTGCTATATACATTAACTTTTTAAGAGGAGGAAT | 1.71
CGACATGTCCCGCTTCTTTCATTAATCCGTTAGCAACTGTTTTGCTATATACATTAATCTTTTAAGAGGAGGAAT | 1.54
CGACATGTCCCGCTTCTTTCATTAATCCGTTAGCAACTGTTTTGCTATATACATTACCCTTTTAAGAGGAGGAAT | 0.597
CGACATGTCCCGCTTCTTTCATTAATCCGTTAGCAACTGTTTTGCTATATACATTAGCCTTTTAAGAGGAGGAAT | 0.519

Sequence | cleaved RNA product abundance
CGACATGTCCCGCTTCTTTCATTAATCCGTTAGCAACTGTTTTGCTATATACATTCACCTTTTAAGAGGAGGAAT | 0.581
CGACATGTCCCGCTTCTTTCATTAATCCGTTAGCAACTGTTTTGCTATATACATTGACCATTTAAGAGGAGGAAT | 0.525
CGACATGTCCCGCTTCTTTCATTAATCCGTTAGCAACTGTTTTGCTATATACATTGACCTTTTAAGAGGAGGAAT | 0.989
CGACATGTCCCGCTTCTTTCATTAATCCGTTAGCAACTGTTTTGCTATATACATTTAACATTTAAGAGGAGGAAT | 0.609
CGACATGTCCCGCTTCTTTCATTAATCCGTTAGCAACTGTTTTGCTATATACATTTAACGTTTAAGAGGAGGAAT | 1.13
CGACATGTCCCGCTTCTTTCATTAATCCGTTAGCAACTGTTTTGCTATATACATTTAACTTTTAAGAGGAGGAAT | 1.24
CGACATGTCCCGCTTCTTTCATTAATCCGTTAGCAACTGTTTTGCTATATACATTTACAATTTAAGAGGAGGAAT | 1.08
CGACATGTCCCGCTTCTTTCATTAATCCGTTAGCAACTGTTTTGCTATATACATTTACATTTTAAGAGGAGGAAT | 1.39
CGACATGTCCCGCTTCTTTCATTAATCCGTTAGCAACTGTTTTGCTATATACATTTACCATTTAAGAGGAGGAAT | 1.03
CGACATGTCCCGCTTCTTTCATTAATCCGTTAGCAACTGTTTTGCTATATACATTTACCCTTTAAGAGGAGGAAT | 0.763
CGACATGTCCCGCTTCTTTCATTAATCCGTTAGCAACTGTTTTGCTATATACATTTACCCTTTTAAGAGGAGGAA | 0.756
CGACATGTCCCGCTTCTTTCATTAATCCGTTAGCAACTGTTTTGCTATATACATTTACCGTTTAAGAGGAGGAAT | 0.948
CGACATGTCCCGCTTCTTTCATTAATCCGTTAGCAACTGTTTTGCTATATACATTTACGTTTTAAGAGGAGGAAT | 1.12
CGACATGTCCCGCTTCTTTCATTAATCCGTTAGCAACTGTTTTGCTATATACATTTACTTTTTAAGAGGAGGAAT | 1.23
CGACATGTCCCGCTTCTTTCATTAATCCGTTAGCAACTGTTTTGCTATATACATTTAGCATTTAAGAGGAGGAAT | 0.755
CGACATGTCCCGCTTCTTTCATTAATCCGTTAGCAACTGTTTTGCTATATACATTTAGCTTTTAAGAGGAGGAAT | 1.07
CGACATGTCCCGCTTCTTTCATTAATCCGTTAGCAACTGTTTTGCTATATACATTTAGGTTTTAAGAGGAGGAAT | 0.86
CGACATGTCCCGCTTCTTTCATTAATCCGTTAGCAACTGTTTTGCTATATACATTTATCGTTTAAGAGGAGGAAT | 0.92
CGACATGTCCCGCTTCTTTCATTAATCCGTTAGCAACTGTTTTGCTATATACATTTATCTTTTAAGAGGAGGAAT | 1.27
CGACATGTCCCGCTTCTTTCATTAATCCGTTAGCAACTGTTTTGCTATATACATTTATGTTTTAAGAGGAGGAAT | 0.888
CGACATGTCCCGCTTCTTTCATTAATCCGTTAGCAACTGTTTTGCTATATACATTTATTTTTTAAGAGGAGGAAT | 2.39
CGACATGTCCCGCTTCTTTCATTAATCCGTTAGCAACTGTTTTGCTATATACATTTCCCATTTAAGAGGAGGAAT | 1.11
CGACATGTCCCGCTTCTTTCATTAATCCGTTAGCAACTGTTTTGCTATATACATTTCCCTTTTAAGAGGAGGAAT | 0.531
CGACATGTCCCGCTTCTTTCATTAATCCGTTAGCAACTGTTTTGCTATATACATTTCCTTTTTAAGAGGAGGAAT | 0.345
CGACATGTCCCGCTTCTTTCATTAATCCGTTAGCAACTGTTTTGCTATATACATTTGCCTTTTAAGAGGAGGAAT | 0.413
